Legend:
[1] = biological target: T1, myo-inositol monophosphatase 1 (IMPA1), purified bovine brain (bovine, UniProt P20456 1-277); assay: cross-linking
T1 sequence (looked up): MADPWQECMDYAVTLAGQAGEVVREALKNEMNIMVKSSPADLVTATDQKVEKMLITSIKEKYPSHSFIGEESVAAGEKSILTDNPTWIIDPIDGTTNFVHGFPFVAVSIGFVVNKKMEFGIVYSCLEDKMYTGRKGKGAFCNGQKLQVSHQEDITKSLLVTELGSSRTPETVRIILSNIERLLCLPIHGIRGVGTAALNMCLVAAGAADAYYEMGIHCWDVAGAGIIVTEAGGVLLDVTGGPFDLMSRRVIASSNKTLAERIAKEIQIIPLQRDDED

[2] = biological target: the molecule itself; assay: cross-linking

B1: S100B, purified bovine brain (natural protein, UniProt P02638 1-92, looked up)
chain: MSELEKAVVALIDVFHQYSGREGDKHKLKKSELKELINNELSHFLEEIKEQEVVDKVMETLDSDGDGECDFQEFMAFVAMITTACHEFFEHE
binding result [1]: binds | binding result [2]: binds

— article PMC3351107 (Cerebellum (London, England), 2009)
